Assay results: patent publication US20160361280A1

Legend:
[1] = target: hCD1d/β-2-microglobulin refolded with ThrCer carbamate 11 (human) (UniProt P15813); assay: SPR (BIAcore), kinetics; TCR injected over immobilised biotinylated hCD1d-lipid
[2] = target: hCD1d/β-2-microglobulin refolded with α-GalCer 1 (human) (UniProt P15813); assay: as above
[3] = target: hCD1d/β-2-microglobulin refolded with ThrCer 2 (human) (UniProt P15813); assay: as above
[4] = target: hCD1d/β-2-microglobulin refolded with α-GalCer thioamide 6 (human) (UniProt P15813); assay: as above
[5] = target: hCD1d/β-2-microglobulin refolded with α-GalCer carbamate 8 (human) (UniProt P15813); assay: as above
[6] = target: hCD1d/β-2-microglobulin refolded with ThrCer thioamide 9 (human) (UniProt P15813); assay: as above
[7] = target: hCD1d/β-2-microglobulin refolded with ThrCer carbamate 11 (human) (UniProt P15813); assay: SPR (BIAcore), equilibrium binding; TCR injected over immobilised biotinylated hCD1d-lipid
[8] = target: hCD1d/β-2-microglobulin refolded with α-GalCer 1 (human) (UniProt P15813); assay: as above
[9] = target: hCD1d/β-2-microglobulin refolded with ThrCer 2 (human) (UniProt P15813); assay: as above
[10] = target: hCD1d/β-2-microglobulin refolded with α-GalCer thioamide 6 (human) (UniProt P15813); assay: as above
[11] = target: hCD1d/β-2-microglobulin refolded with α-GalCer carbamate 8 (human) (UniProt P15813); assay: as above
[12] = target: hCD1d/β-2-microglobulin refolded with ThrCer thioamide 9 (human) (UniProt P15813); assay: as above
[13] = target: hCD1d/β-2-microglobulin refolded with ThrCer carbamate 11 (human) (UniProt P15813); assay: SPR (BIAcore); calculated from experimental koff and Kd
[14] = target: hCD1d/β-2-microglobulin refolded with α-GalCer 1 (human) (UniProt P15813); assay: as above
[15] = target: hCD1d/β-2-microglobulin refolded with ThrCer 2 (human) (UniProt P15813); assay: as above
[16] = target: hCD1d/β-2-microglobulin refolded with α-GalCer thioamide 6 (human) (UniProt P15813); assay: as above
[17] = target: hCD1d/β-2-microglobulin refolded with α-GalCer carbamate 8 (human) (UniProt P15813); assay: as above
[18] = target: hCD1d/β-2-microglobulin refolded with ThrCer thioamide 9 (human) (UniProt P15813); assay: as above

Substance: soluble human iNKT cell T cell receptor (Vα24/Vβ11 heterodimer) (TCR)
- koff [1]: 1.19 s⁻¹
- koff [2]: 0.565 s⁻¹
- koff [3]: 1.18 s⁻¹
- koff [4]: 0.537 s⁻¹
- koff [5]: 0.919 s⁻¹
- koff [6]: 1.88 s⁻¹
- Kd [7]: 4.6 µM
- Kd [8]: 2.19 µM
- Kd [9]: 4.57 µM
- Kd [10]: 4.2 µM
- Kd [11]: 1.72 µM
- Kd [12]: 36.1 µM
- kon [13]: 259000 M⁻¹ s⁻¹
- kon [14]: 258000 M⁻¹ s⁻¹
- kon [15]: 258000 M⁻¹ s⁻¹
- kon [16]: 128000 M⁻¹ s⁻¹
- kon [17]: 534000 M⁻¹ s⁻¹
- kon [18]: 520000 M⁻¹ s⁻¹
